The values that follow come from patent publication US20250388682A1 (EPIBIOLOGICS, published 2025).

First the molecules themselves.
B1: EPI873 (hu15G11v5/Mav2) (bispecific antibody, human IgG1, kappa)
heavy: not shown
light: DIQMTQSPSSLSASVGDRVTITCRASDNLYSNLAWYQQKPGKSPKLLVYDATNLADGVPSRFSGSGSGTDYTLTISSLQPEDFATYYCQHFWGTPLTFGQGTKVEIKRTVAAPSVFIFPPSDEQLKSGTASVVCLLNNFYPREAKVQWKVDNALQSGNSQESVTEQDSKDSTYSLSSTLTLSKADYEKHKVYACEVTHQGLSSPVTKSFNRGEC
chain: not shown
B2: EPI1556-1 (hu15G11v5/EgB4) (bispecific antibody, human IgG1, kappa)
heavy: not shown
light: DIQMTQSPSSLSASVGDRVTITCRASDNLYSNLAWYQQKPGKSPKLLVYDATNLADGVPSRFSGSGSGTDYTLTISSLQPEDFATYYCQHFWGTPLTFGQGTKVEIKRTVAAPSVFIFPPSDEQLKSGTASVVCLLNNFYPREAKVQWKVDNALQSGNSQESVTEQDSKDSTYSLSSTLTLSKADYEKHKVYACEVTHQGLSSPVTKSFNRGEC
chain: not shown
B3: EPI1022-1 (Duligotuzumab/Mav2) (bispecific antibody, human IgG1, kappa)
heavy: not shown
light: DIQMTQSPSSLSASVGDRVTITCRASQNIATDVAWYQQKPGKAPKLLIYSASFLYSGVPSRFSGSGSGTDFTLTISSLQPEDFATYYCQQSEPEPYTFGQGTKVEIKRTVAAPSVFIFPPSDEQLKSGTASVVCLLNNFYPREAKVQWKVDNALQSGNSQESVTEQDSKDSTYSLSSTLTLSKADYEKHKVYACEVTHQGLSSPVTKSFNRGEC
chain: not shown
B4: EPI1527-1 (Duligotuzumab/EgB4) (bispecific antibody, human IgG1, kappa)
heavy: not shown
light: DIQMTQSPSSLSASVGDRVTITCRASQNIATDVAWYQQKPGKAPKLLIYSASFLYSGVPSRFSGSGSGTDFTLTISSLQPEDFATYYCQQSEPEPYTFGQGTKVEIKRTVAAPSVFIFPPSDEQLKSGTASVVCLLNNFYPREAKVQWKVDNALQSGNSQESVTEQDSKDSTYSLSSTLTLSKADYEKHKVYACEVTHQGLSSPVTKSFNRGEC
chain: not shown

This test has as its target Epidermal Growth Factor Receptor (EGFR) (human, UniProt P00533 25-1210). Nature of the test: cell-based or functional assay.
Consider B1, for which the “EGFR cell surface removal (percent; flow cytometry with a labeled anti-EGFR antibody after 24 hours at 50 nM)” value stood at 76.4%.

Regarding B2, the “EGFR cell surface removal (percent; flow cytometry with a labeled anti-EGFR antibody after 24 hours at 50 nM)” value stood at 69.2%.

B3: the “EGFR cell surface removal (percent; flow cytometry with a labeled anti-EGFR antibody after 24 hours at 50 nM)” value turned out to be 75.1%.

On to B4, for which the “EGFR cell surface removal (percent; flow cytometry with a labeled anti-EGFR antibody after 24 hours at 50 nM)” value was 78.6%.
